Reference: article doi:10.1101/2023.10.11.561842

Tests used:
[1] = biological target: ErNaR, NDQ rhodopsin (light-driven sodium pump) from Erythrobacter sp. HL-111 (Erythrobacter sp. HL-111); test: cryo-EM structure
[2] = biological target: ErNaR, NDQ rhodopsin (light-driven sodium pump) from Erythrobacter sp. HL-111 (Erythrobacter sp. HL-111); test: SEC
[3] = biological target: ErNaR, NDQ rhodopsin (light-driven sodium pump) from Erythrobacter sp. HL-111 (Erythrobacter sp. HL-111); test: SEC; remark: listed apart in the source
[4] = biological target: ErNaR, NDQ rhodopsin (light-driven sodium pump) from Erythrobacter sp. HL-111 (Erythrobacter sp. HL-111); test: cryo-EM structure; remark: listed apart in the source

stoichiometry N [1]: 5
stoichiometry N [2]: 5
stoichiometry N [3]: 5
stoichiometry N [4]: 5
Substance: ErNaR, NDQ rhodopsin (light-driven sodium pump) from Erythrobacter sp. HL-111 (natural protein)
